According to PMC9454804:

Assays:
[1] = molecular target: Vascular Endothelial Growth Factor Receptor 1 (VEGFR1) (mouse (endogenous in C57BL/6 and eNOS-KO skeletal muscle)) (UniProt P35969)
[2] = molecular target: Vascular Endothelial Growth Factor Receptor 1 (VEGFR1) (mouse (endogenous in C57BL/6 and eNOS-KO skeletal muscle)) (UniProt P35969); remark: listed apart in the source
[3] = molecular target: Vascular Endothelial Growth Factor Receptor 1 (VEGFR1) (mouse (endogenous in C57BL/6 and eNOS-KO skeletal muscle)) (UniProt P35969); remark: listed apart in the source

UniProt P35969, sequence (P35969 23-1333 S1181G): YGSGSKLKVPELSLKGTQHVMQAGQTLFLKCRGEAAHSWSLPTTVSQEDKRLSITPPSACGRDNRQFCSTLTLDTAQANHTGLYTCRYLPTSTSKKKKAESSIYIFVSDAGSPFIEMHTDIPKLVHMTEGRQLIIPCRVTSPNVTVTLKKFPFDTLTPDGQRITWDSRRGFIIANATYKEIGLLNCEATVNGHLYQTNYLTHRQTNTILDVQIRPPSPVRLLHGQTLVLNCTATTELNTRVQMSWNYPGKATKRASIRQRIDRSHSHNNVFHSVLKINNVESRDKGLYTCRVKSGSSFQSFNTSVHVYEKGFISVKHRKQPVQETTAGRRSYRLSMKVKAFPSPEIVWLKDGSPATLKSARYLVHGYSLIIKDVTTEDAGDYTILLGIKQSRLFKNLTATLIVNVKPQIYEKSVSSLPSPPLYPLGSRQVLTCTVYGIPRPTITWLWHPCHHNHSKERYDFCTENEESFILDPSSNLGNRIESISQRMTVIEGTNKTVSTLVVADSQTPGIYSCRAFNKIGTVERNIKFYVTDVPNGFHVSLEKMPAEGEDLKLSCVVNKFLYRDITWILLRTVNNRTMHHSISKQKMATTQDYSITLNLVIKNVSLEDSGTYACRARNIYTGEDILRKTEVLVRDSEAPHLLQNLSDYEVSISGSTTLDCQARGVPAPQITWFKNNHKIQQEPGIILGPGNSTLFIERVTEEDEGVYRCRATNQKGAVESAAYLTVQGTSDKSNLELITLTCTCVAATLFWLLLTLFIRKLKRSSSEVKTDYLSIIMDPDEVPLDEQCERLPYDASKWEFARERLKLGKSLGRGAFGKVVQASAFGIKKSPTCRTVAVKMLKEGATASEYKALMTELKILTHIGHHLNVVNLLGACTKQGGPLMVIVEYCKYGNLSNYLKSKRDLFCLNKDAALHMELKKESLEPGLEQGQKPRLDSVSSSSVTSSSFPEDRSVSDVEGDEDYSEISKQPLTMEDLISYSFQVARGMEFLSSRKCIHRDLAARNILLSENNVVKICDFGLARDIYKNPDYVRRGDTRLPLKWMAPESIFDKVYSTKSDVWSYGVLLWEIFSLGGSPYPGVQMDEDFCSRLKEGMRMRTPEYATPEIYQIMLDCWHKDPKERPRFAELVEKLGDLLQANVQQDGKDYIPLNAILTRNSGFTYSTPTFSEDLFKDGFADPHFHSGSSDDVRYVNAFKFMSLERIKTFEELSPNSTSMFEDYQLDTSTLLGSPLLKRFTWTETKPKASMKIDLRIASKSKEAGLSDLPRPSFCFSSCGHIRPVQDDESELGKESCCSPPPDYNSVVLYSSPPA

- pVEGFR1(Y1333) activation in VEGFR1 pull-down fractions, non-ischemic HFD vs. non-ischemic normal chow muscle [1]: 1.5 fold
- pSTAT3 activation, HFD-ischemic muscle treated with VEGF165b-Ab vs. IgG at day 3 post-HLI [2]: 1.5 fold
- pVEGFR1(Y1333) activation, HFD-ischemic muscle treated with VEGF165b-Ab vs. IgG at day 3 post-HLI [2]: 1.5 fold
- pSTAT3 activation, eNOS-KO ischemic muscle treated with VEGF165b-Ab vs. IgG [3]: 1.4 fold
- pVEGFR1(Y1333) activation in VEGFR1 pull-down fractions, eNOS-KO ischemic muscle treated with VEGF165b-Ab vs. IgG [3]: 1.3 fold
Substance: anti-angiogenic VEGF-A isoform VEGF165b (ligand)
